Laboratory results from PMC7431817.

How the values were obtained:
[1] = biological target: EGFR-GFP (epidermal growth factor receptor fused to GFP) on F1-4 cells (UniProt P00533); assay: flow cytometry on cells; F1-4 cells treated with 2 uM latrunculin-B at 37°C for 10 min, then concentration series of TAMRA-EGF, 1 h on ice; Hill equation fit
[2] = biological target: EGFR-GFP (epidermal growth factor receptor fused to GFP) on F1-4 cells (UniProt P00533); assay: flow cytometry on cells; F1-4 cells incubated with a concentration series of EGF for 24 h on ice; Hill equation fit; the paper finds internalized EGF and questions equilibrium at this time
[3] = biological target: EGFR-GFP (epidermal growth factor receptor fused to GFP) on F1-4 cells (UniProt P00533); assay: flow cytometry on cells; cells treated with 5 uM lapatinib at 37°C for 1 h and labelled with TAMRA-EGF in the continued presence of the inhibitor, 1 h on ice; Hill equation fit, apparent Kd; all cells
[4] = biological target: EGFR-GFP (epidermal growth factor receptor fused to GFP) on F1-4 cells (UniProt P00533); assay: flow cytometry on cells; cells treated with 5 uM lapatinib at 37°C for 1 h and labelled with TAMRA-EGF in the continued presence of the inhibitor, 1 h on ice; Hill equation fit, apparent Kd; low expresser gate
[5] = biological target: EGFR-GFP (epidermal growth factor receptor fused to GFP) on F1-4 cells (UniProt P00533); assay: flow cytometry on cells; cells treated with 5 uM erlotinib at 37°C for 1 h and labelled with TAMRA-EGF in the continued presence of the inhibitor, 1 h on ice; Hill equation fit, apparent Kd; high expresser gate
[6] = biological target: EGFR-GFP (epidermal growth factor receptor fused to GFP) on F1-4 cells (UniProt P00533); assay: flow cytometry on cells; cells treated with 5 uM lapatinib at 37°C for 1 h and labelled with TAMRA-EGF in the continued presence of the inhibitor, 1 h on ice; Hill equation fit, apparent Kd; high expresser gate
[7] = biological target: EGFR-GFP (epidermal growth factor receptor fused to GFP) on F1-4 cells (UniProt P00533); assay: flow cytometry on cells; two-fold dilution series of TAMRA-EGF in PBS + 1% BSA on suspended F1-4 cells, 1 h on ice, measured without washing; Hill equation fit, apparent Kd; untreated (control) cells, all cells
[8] = biological target: EGFR-GFP (epidermal growth factor receptor fused to GFP) on F1-4 cells (UniProt P00533); assay: flow cytometry on cells; cells treated with 5 uM erlotinib at 37°C for 1 h and labelled with TAMRA-EGF in the continued presence of the inhibitor, 1 h on ice; Hill equation fit, apparent Kd; medium expresser gate
[9] = biological target: EGFR-GFP (epidermal growth factor receptor fused to GFP) on F1-4 cells (UniProt P00533); assay: flow cytometry on cells; cells treated with 5 uM lapatinib at 37°C for 1 h and labelled with TAMRA-EGF in the continued presence of the inhibitor, 1 h on ice; Hill equation fit, apparent Kd; medium expresser gate
[10] = biological target: EGFR-GFP (epidermal growth factor receptor fused to GFP) on F1-4 cells (UniProt P00533); assay: flow cytometry on cells; global fit of the paper's model (conformations of ECD and kinase domain, dimerization, ligand binding to monomers and dimers) to all 12 TAMRA-EGF binding data sets (untreated, erlotinib, lapatinib; three gates and all cells), 1 h on ice; K2-K9 shared; ligand constants in nM, receptor dimerization constants in number of receptors/cell

Kd [1]: 8.2 nM
Kd [2]: 5.2 nM
Kd [3]: 4.9 nM
Kd [4]: 6.3 nM
Kd [5]: 1.7 nM
Kd [6]: 4.9 nM
Kd [7]: 3.4 nM
Kd [8]: 1.8 nM
Kd [9]: 5.1 nM
K3, Kd of EGF binding to a monomer with extended ECD [10]: 1.3 nM
K5, Kd of binding of the first EGF to a dimer with inactive, symmetric kinase dimer [10]: 95 nM
K6, Kd of binding of the second EGF to a dimer with inactive, symmetric kinase dimer [10]: 0.45 nM
K9, Kd of binding of the second EGF to a dimer with active, asymmetric kinase dimer [10]: 2.96 nM
Substance: Tetramethylrhodamine-labeled EGF (ligand)
